From patent publication US20170089928A1 (SYSMEX, published 2017) come the findings set out here.

Test [1] addresses T1, BSA heat-denatured for 5 minutes (bovine, UniProt P02769 25-607).
T1 construct: Autoclaved at 110 C for 5 min; also called heat denaturation period 5 min
Description: turbidity (OD550), BSA heat-denatured for 5 min mixed with rising concentration of the partial ACTH peptide. As to the method: (§1) The Kd value and Hill coefficient of BSA at respective heat denaturation periods were calculated.

The target of test [2] is T2, Heat-denatured BSA (bovine serum albumin autoclaved for 15 minutes) (bovine, UniProt P02769 25-607).
T2 construct: also called heat-denatured BSA solution; reagent for detection
Description: turbidity (OD550), heat-denatured BSA mixed with rising concentration of the partial ACTH peptide, with salmon sperm DNA (10 µM). The protocol:
(§2) A comparative mixed solution was prepared by adding to the mixed solution a salmon sperm DNA (trade name: Sonicated Salmon Sperm DNA, BioDynamics Laboratory Inc.) as nucleic acid (final concentration of nucleic acid: 10 μM).
(§3) The Kd value and Hill coefficient were calculated for the mixed solutions.

In test [3] the target is T2, Heat-denatured BSA (bovine serum …). The test can be described thus: turbidity (OD550), Hill plot analysis; table row for nucleic acid 'No'. The protocol:
as §2, §3

Test [4] shares this target. Description: turbidity (OD550), Hill plot analysis; table row for nucleic acid 'Yes' (salmon sperm DNA, 10 µM); with nucleic acid (Yes). The protocol:
as §2, §3

For test [5] the target is unchanged. Description: turbidity (OD550) of mixtures of heat-denatured BSA (0.2 w/v %) with rising concentration of the partial ACTH peptide. The protocol: (§4) In this preparation, the sample was mixed so as to obtain a final concentration of the partial ACTH peptide in the mixed solution of 0 to 150 μM.
(§5) The thus-prepared mixed solutions were measured for absorbance at the wavelength of 550 nm (OD550) in a spectrophotometer UV-2500PC (Shimadzu Corporation).

Test [6] has the same target. Description: turbidity (OD550), Hill fit with competitive inhibition term; serum at 100-fold dilution. The protocol: (§6) In the preparation, the serum-based sample was mixed so as to adjust a final concentration of the partial ACTH peptide of to 0 to 80 μM and adjust a final concentration of serum of to an equivalent to 100-fold dilution in the mixed solution. For a control, a mixed solution was also prepared without serum (hereinafter referred to as “control solution”).
(§7) The thus-prepared mixed solutions were measured for absorbance at the wavelength of 550 nm (OD550) with a spectrophotometer UV-2500PC (Shimadzu Corporation).

The target is the same in test [7]. Description: turbidity (OD550), heat-denatured BSA mixed with rising concentration of the partial ACTH peptide, without nucleic acid. As to the method:
as §2, §3

Test [8] deals with T3, Heat-denatured ovoalbumin (OA) (UniProt P01012 2-386).
T3 construct: 1.0 w/v % OA, pH adjusted to 5 to 7 with sodium hydroxide, autoclaved at 115 C for 15 min; also called Heat-denatured OA; denatured OA
T3 sequence (looked up): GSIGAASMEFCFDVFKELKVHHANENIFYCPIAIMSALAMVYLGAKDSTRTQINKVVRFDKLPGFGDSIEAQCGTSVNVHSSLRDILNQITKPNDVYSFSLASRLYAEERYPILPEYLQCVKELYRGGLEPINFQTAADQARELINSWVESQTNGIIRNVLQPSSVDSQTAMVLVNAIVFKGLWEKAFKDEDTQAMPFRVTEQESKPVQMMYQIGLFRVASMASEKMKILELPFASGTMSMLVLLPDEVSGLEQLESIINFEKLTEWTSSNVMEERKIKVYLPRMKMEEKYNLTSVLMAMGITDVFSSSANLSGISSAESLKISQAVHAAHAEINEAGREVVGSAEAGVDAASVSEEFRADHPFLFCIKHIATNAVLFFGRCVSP
The test can be described thus: turbidity (OD550), Hill plot analysis. As to the method: (§8) In the preparation, the sample was mixed so as to obtain a final concentration of the partial ACTH peptide in the mixed solution of 0 to 80 μM.
as §7

Test [9] addresses T2, Heat-denatured BSA (bovine serum …). Description: turbidity (OD550), BSA heat-denatured for 15 min mixed with rising concentration of the partial ACTH peptide. As to the method:
as §1

Test [10] concerns the target T4, BSA heat-denatured for 60 minutes (bovine, UniProt P02769 25-607).
T4 construct: Autoclaved at 110 C for 60 min; also called heat denaturation period 60 min
The test can be described thus: turbidity (OD550), BSA heat-denatured for 60 min mixed with rising concentration of the partial ACTH peptide. As to the method: as §1

The target in test [11] is T2, Heat-denatured BSA (bovine serum …). Description: turbidity (OD550), Hill plot analysis; control solution without serum. The protocol:
as §6, §7

Test [12] concerns the target T1, BSA heat-denatured for 5 minutes. Description: turbidity (OD550), Hill plot analysis; heat denaturation period 5 min. The protocol:
as §1

In test [13] the target is T5, Non-denatured BSA (bovine, UniProt P02769 25-607).
T5 construct: BSA solution that was not heated; also called non-denatured BSA solution; BSA heat-denatured for 0 min
The test can be described thus: turbidity (OD550), Hill plot analysis; heat denaturation period 0 min. The protocol: as §1

Test [14] concerns the target T4, BSA heat-denatured for 60 minutes. Description: turbidity (OD550), Hill plot analysis; heat denaturation period 60 min. As to the method: as §1
The target of test [15] is T6, BSA heat-denatured for 120 minutes (bovine, UniProt P02769 25-607).
T6 construct: Autoclaved at 110 C for 120 min; also called heat denaturation period 120 min
The test can be described thus: turbidity (OD550), Hill plot analysis; heat denaturation period 120 min. As to the method: as §1

Test [16] addresses T7, Heat-denatured human serum albumin (HSA) (human, UniProt P02768 25-609).
T7 construct: 1.0 w/v % HSA in ultrapure water, autoclaved at 115 C for 15 min; also called Heat-denatured HSA; denatured HSA
Description: turbidity (OD550), heat-denatured HSA (0.2 w/v %) mixed with rising concentration of the partial ACTH peptide. As to the method: as §8, §7

Test [17] addresses T6, BSA heat-denatured for 120 minutes. The test can be described thus: turbidity (OD550), BSA heat-denatured for 120 min mixed with rising concentration of the partial ACTH peptide. As to the method: as §1
Test [18] has as its target T2, Heat-denatured BSA (bovine serum …). Description: turbidity (OD550), heat-denatured BSA mixed with rising peptide concentration; fitted curve of FIG. 1 superimposed.
Test [19] shares this target. The test can be described thus: turbidity (OD550), Hill plot analysis; heat denaturation period 15 min. The protocol:
as §1

Test [20] deals with T5, Non-denatured BSA. The test can be described thus: turbidity (OD550) against peptide concentration, Hill plot analysis. The protocol:
as §4, §5

Test [21] has as its target T2, Heat-denatured BSA (bovine serum …). The test is described as above. The protocol:
as §4, §5

Test [22] shares this target. Description: turbidity (OD550), heat-denatured BSA mixed with rising concentration of α-endorphin. The protocol:
In the preparation, the sample was mixed so as to obtain a final concentration of the respective peptides in the mixed solutions of 0 to 150 μM.

Test [23] has the same target. Description: turbidity (OD550), heat-denatured BSA mixed with rising concentration of the Factor XIII peptide.
Test [24] shares this target. The test can be described thus: turbidity (OD550), heat-denatured BSA mixed with rising concentration of the Fibrinogen α peptide.
The target is the same in test [25]. The test can be described thus: turbidity (OD550), Hill plot analysis. The protocol:
(§9) The Kd value and Hill coefficient were calculated for the respective samples.

The target is the same in test [26]. The test can be described thus: turbidity (OD550), heat-denatured BSA mixed with rising concentration of the kininogen fragment. The protocol: In the preparation, the sample was mixed so as to obtain a final concentration of the respective peptides in the mixed solutions of 0 to 80 μM.
as §9

Test [27] shares this target. The test can be described thus: turbidity (OD550), heat-denatured BSA mixed with rising concentration of C3f.

T2 sequence (P02769 25-607 limits assumed): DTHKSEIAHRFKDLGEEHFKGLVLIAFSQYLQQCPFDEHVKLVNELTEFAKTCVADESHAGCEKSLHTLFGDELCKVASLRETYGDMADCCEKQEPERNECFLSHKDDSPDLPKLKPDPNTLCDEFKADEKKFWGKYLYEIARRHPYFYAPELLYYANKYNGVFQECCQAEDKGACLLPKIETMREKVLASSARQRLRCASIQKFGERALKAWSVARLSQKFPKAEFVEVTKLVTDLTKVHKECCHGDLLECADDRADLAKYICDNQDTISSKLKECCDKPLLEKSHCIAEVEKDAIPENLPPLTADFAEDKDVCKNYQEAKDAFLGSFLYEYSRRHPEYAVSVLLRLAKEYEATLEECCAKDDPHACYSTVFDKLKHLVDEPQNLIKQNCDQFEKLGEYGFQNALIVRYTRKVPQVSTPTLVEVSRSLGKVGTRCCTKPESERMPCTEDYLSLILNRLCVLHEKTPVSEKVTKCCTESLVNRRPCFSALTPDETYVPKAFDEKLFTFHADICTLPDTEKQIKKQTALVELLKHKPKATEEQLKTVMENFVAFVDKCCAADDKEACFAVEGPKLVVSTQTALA
T5 sequence (P02769 25-607 limits assumed): as above
T1 sequence (P02769 25-607 limits assumed): as above
T4 sequence (P02769 25-607 limits assumed): as above
T6 sequence (P02769 25-607 limits assumed): as above

B1: partial ACTH peptide consisting of the amino acids of positions 1 to 24 of ACTH (peptide)
peptide: SYSMEHFRWGKPVGKKRRPVKVYP
notes: also called basic peptide of interest
B1: the “EC50 (read off the curve)” value in [1] is roughly 30 µM; in [2], roughly 40 µM; in test [5], roughly 30 µM; in [7], roughly 30 µM; in [9], roughly 30 µM; in [10], roughly 30 µM. The “EC50 (read off the curve)” value is 40 to 50 µM in test [16], roughly 30 µM in test [17] and 20 to 30 µM in [18]. The Kd stood at 40 µM in [3]; 30 µM in [4]; 29 µM in test [6]; 67 µM in [8]; 25 µM in test [11]; 33 µM in test [12]. The Kd turned out to be 290 µM with Non-denatured BSA [13]; 28 µM in [14]; 33 µM in [15]; 30 µM in test [19]; 290 µM with Non-denatured BSA [20]; 30 µM in [21].

B2: α-endorphin (peptide)
peptide: YGGFMTSEKSQTPLVT
notes: Neutral comparative peptide, Peptide Institute, Inc; also called neutral peptide, α-endorphin
As for B2, the binding result in [22] is reported as “no binding (tested: 150 µM)”.

B3: Factor XIII (acidic peptide) (peptide)
peptide: AVPPNNSNAAEDDLPTVELQGVVPR
As for B3, in test [23], the binding result is listed as “no binding (tested: 80 µM)”.

B4: Fibrinogen α (neutral peptide) (peptide)
peptide: DEAGSEADHEGTHSTKRGHAKSRPV
Turning to B4, in test [24], the binding result is “no binding (tested: 80 µM)”.

B5: fragment of ITIH4 (positions 611 to 642) (peptide)
peptide: GESRNRNVHSGSTFFKYYLQGAKIPKPEASFS
notes: also called ITIH4 (611-642); ITIH4 fragment
B5 registered a Kd in test [25] of 70 µM.

B6: fragment of kininogen (positions 439 to 457) (peptide)
peptide: HNLGHGHKHERDQGHGHQR
notes: also called Kininogen (439-457); kininogen fragment
For the molecule B6, the Kd in test [25] came to 45 µM. Besides, the “EC50 (read off the curve)” value in [26] was roughly 40 µM.

B7: C3f (acidic peptide) (peptide)
peptide: HWESASLL
notes: Acidic peptide from Biologica Co
In the case of B7, the binding result in [27] is listed as “no binding (tested: 80 µM)”.

The term EC50 (read off the curve) denotes the concentration at which the effect is half-maximal. Broadly, the Kd is the equilibrium constant for the complex coming apart. Lower therefore signals tighter binding.
